Common to all, as to details: protein: recombinant; tags: GST (pGEX-4T-1); label: 3'-biotin
Data set [1] concerns the target T1, AdWRKY29 (kiwifruit, UniProt A0A2R6PHX2 1-296).
T1 sequence: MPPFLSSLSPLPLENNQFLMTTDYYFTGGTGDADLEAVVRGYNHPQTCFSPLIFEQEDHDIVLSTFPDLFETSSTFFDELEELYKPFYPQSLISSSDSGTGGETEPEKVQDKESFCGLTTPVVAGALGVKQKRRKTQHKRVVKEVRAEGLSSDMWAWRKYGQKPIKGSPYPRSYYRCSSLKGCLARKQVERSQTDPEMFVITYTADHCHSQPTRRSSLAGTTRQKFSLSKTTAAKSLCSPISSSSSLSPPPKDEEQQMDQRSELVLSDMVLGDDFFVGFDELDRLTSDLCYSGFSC
Nature of the data set: EMSA; LightShift Chemiluminescent EMSA kit (Thermo); 3'-biotin dsDNA probes, 20- and 500-fold unlabeled competitor; buffer, salt, pH and temperature not stated. Background: A gel shift assay detects complexes by their altered migration in electrophoresis.

In data set [2] the target is T1, AdWRKY29. Nature of the data set: EMSA; reduced by 20- and 500-fold unlabeled probe; LightShift Chemiluminescent EMSA kit (Thermo); 3'-biotin dsDNA probes, 20- and 500-fold unlabeled competitor; buffer, salt, pH and temperature not stated.
For data set [3], the target named is AdERF105L (kiwifruit, UniProt A0A2R6RWH8 1-269). Described as above.
Sequence of AdERF105L (A0A2R6RWH8 entry or part of it): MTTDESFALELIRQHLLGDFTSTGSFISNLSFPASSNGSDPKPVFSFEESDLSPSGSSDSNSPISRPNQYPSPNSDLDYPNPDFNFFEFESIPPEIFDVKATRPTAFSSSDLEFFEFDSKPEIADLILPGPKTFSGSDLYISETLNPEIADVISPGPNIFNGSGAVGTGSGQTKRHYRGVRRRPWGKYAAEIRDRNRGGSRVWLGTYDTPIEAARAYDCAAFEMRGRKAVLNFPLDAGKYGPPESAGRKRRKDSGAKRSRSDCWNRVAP

B1: AdACO5 promoter W-box mutant probe (dsDNA)
DNA 1: AACAAAGTCCAGAAAAAAACTTTAATTTCC
DNA 2: GGAAATTAAAGTTTTTTTCTGGACTTTGTT
On to B1, for which the binding result in data set [1] is “no binding”.

B2: AdACO5 promoter W-box probe (dsDNA)
DNA 1: AACAAAGTCCAGTTGACCACTTTAATTTCC
DNA 2: GGAAATTAAAGTGGTCAACTGGACTTTGTT
As for B2, in data set [2], the binding result is reported as “binds”.

B3: AdACS2 promoter DRE probe (dsDNA)
DNA 1: CTAAGATTTGCTGTCGGTATGGCTCTCAT
DNA 2: ATGAGAGCCATACCGACAGCAAATCTTAG
Regarding B3, the binding result in data set [3] is reported as “binds”.

B4: AdACS1 promoter DRE probe (dsDNA)
DNA 1: CTGCGATTTGCCGTCGGTACGACTCTCATC
DNA 2: GATGAGAGTCGTACCGACGGCAAATCGCAG
On to B4, for which the binding result in data set [3] is listed as “binds”.

The record behind these values is paper PMC9347011, “Transcriptional and post-transcriptional regulation of ethylene biosynthesis by exogenous acetylsalicylic acid in kiwifruit”.
